Source: US20140087401

Tested on: purified spectrin

calpain (added in the in-tube reaction)
spectrin cleavage, gel stained with Coomassie's blue: Purified spectrins undergo calpain-mediated dynamic cleavage in a test tube due to ambient PAV impact
